# Assay: soluble on expression in E. coli; label from the status in PepcDB or PDB records
row,Sequence,soluble on expression in E. coli
1,MSTKPEKPIWMSQEDYDRQYGSITGDESSTVSKKDSKVTANAPGDGNGSLPVLQSSSILTSKVSDLPIEAESGFKIQKRRHERYDQEERLRKQRAQKLREEQLKRHEIEMTANRSINVDQIVREHYNERTIIANRAKRNLSPIIKLRNFNNAIKYMLIDKYTKPGDVVLELGCGKGGDLRKYGAAGISQFIGIDISNASIQEAHKRYRSMRNLDYQVVLITGDCFGESLGVAVEPFPDCRFPCDIVSTQFCLHYAFETEEKARRALLNVAKSLKIGGHFFGTIPDSEFIRYKLNKFPKEVEKPSWGNSIYKVTFENNSYQKNDYEFTSPYGQMYTYWLEDAIDNVPEYVVPFETLRSLADEYGLELVSQMPFNKFFVQEIPKWIERFSPKMREGLQRSDGRYGVEGDEKEAASYFYTMFAFRKVKQYIEPESVKPN,soluble
2,MGSDKIHHHHHHMNNKDLWIKEEIIWSEHKCIRFAAGGYEALIIPDVGGNVVELKDTNKGVTILRTPKKDLKFEDFKNRPQVYGLPVLFPPNRIDDGTFKLGDKTYKFPINEAKNNNYIHGFIKNSKWTVHKKKIDQDKALVEVVFDFTKENEAYKYFSHEFQFKLSYELSSKGLKQTTSVVNLSSEEMPLSVGYHSAFNVPFIEGSEDSNCRVKISIDKFWKQDSRNLPTGESFAPTGEQKEYLENGVAVASHPIESLFSLKDIDVNGKTFRGACIEDASKNTRVVYEMSSEYKYLVIWNDMGDKKYACIEPQTSIINSPNVKLDRSVSGFKTLKPNESWSGVCKLYIENM,not soluble
3,EGCYVATLEKCATCSQPILDRILRAMGKAYHPGCFTCVVCHRGLDGIPFTVDATSQIHCIEDFHRKFA,soluble
4,MGSDKIHHHHHHMQPDLLVFGGDLISGPIPLETLDLIYDLKSKYRTASVLGNNDQDIIDSYENKKLSLSNKAQEQIKWVTRLLNEKQILDLKDMPININVGKYFFCHAIADDNRTIFTQKTRISNIKQLFLEVISPFIICGHTHLQFKLKIGSQQIINAGSVGMPFSDKKGAQWLWIENNNFQFRRTLFDEDIAIKNMKNSDFPFVNQFIEEYVKNTVKVRTGYKILRRLEENNRLRK,not soluble
5,MGSSHHHHHHSSGRENLYFQGMVKNYVLDTNVLIHDPDSIFSFEDNNVIIPLPVLEELDKLKREHGSVGKNAREVIRHLDELRKKGNLRKGIPLENGGILRVMVLEREVENVPRFLHERYVDNIILAYVIELMNREKIPTILVSKDINLRVKADSLGIPAQDYLTDRSELETMPKGYVEIDDEELKKQLKVKVTVEKKLDLLDNFYIDLGGVYGKYRKGKVLRVEPFETMGISPRNREQIFSMDALLDDEIPLVFLVGIAGTGKTLLALACGLYKVLVEKRYKKLIVTRPTVPMGRDIGYLPGELEKKMKPWLQPIMDNLELISSLSGLKIKELEKQEILEVEAISFIRGRSIPKQFIIIDEAQNLTPHEVKTILTRVGEDTKIVLVGDPYQIDTPYLDKDTNGLVYAALKLLESDLSAVIKLEKGERSRLATIAAELL,soluble
6,MSNTLNHTSSRQIVRHYTHSQKRCKHLMQYFVSANGLFELKVKIYAFLFSMILEGKCRSVSIIADISCFFLFHFHAIRNAFYSIHPTYRAEGENERLTLLLIAQGYALSL,not soluble
7,MNELDGIKQFTTVVADSGDIESIRHYHPQDATTNPSLLLKAAGLSQYEHLIDDAIAWGKKNGKTQEQQVVAACDKLAVNFGAEILKIVPGRVSTEVDARLSFDKEKSIEKARHLVDLYQQQGVEKSRILIKLASTWEGIRAAEELEKEGINCNLTLLFSFAQARACAEAGVFLISPFVGRIYDWYQARKPMDPYVVEEDPGVKSVRNIYDYYKQHHYETIVMGASFRRTEQILALTGCDRLTIAPNLLKELQEKVSPVVRKLIPPSQTFPRPAPMSEAEFRWEHNQDAMAVEKLSEGIRLFAVDQRKLEDLLAAKL,soluble
8,MTYTVGMYLAERLVQIGLKHHFAVAGDYNLVLLDQLLLNKDMKQIYCCNELNCGFSAEGYARSNGAAAAVVTFSVGAISAMNALGGAYAENLPVILISGAPNSNDQGTGHILHHTIGKTDYSYQLEMARQVTCAAESITDAHSAPAKIDHVIRTALRERKPAYLDIACNIASEPCVRPGPVSSLLSEPEIDHTSLKAAVDATVALLEKSASPVMLLGSKLRAANALAATETLADKLQCAVTIMAAAKGFFPEDHAGFRGLYWGEVSNPGVQELVETSDALLCIAPVFNDYSTVGWSAWPKGPNVILAEPDRVTVDGRAYDGFTLRAFLQALAEKAPARPASAQKSSVPTCSLTATSDEAGLTNDEIVRHINALLTSNTTLVAETGDSWFNAMRMTLPRGARVELEMQWGHIGWSVPSAFGNAMGSQDRQHVVMVGDGSFQLTAQEVAQMVRYELPVIIFLINNRGYVIEIAIHDGPYNYIKNWDYAGLMEVFNAGEGHGLGLKATTPKELTEAIARAKANTRGPTLIECQIDRTDCTDMLVQWGRKVASTNARKTTLALEHHHHHH,soluble
9,MGRKVKPLASMKKHLTNDERDQRKDAEKALFDYPSLDLTPPDWLHDRALTEWQRVAPYLKANTPISELDRAMLASYCRAYATVQTCENDIRKNGLVQTNQKSGVRKPNPYVALQSQAMKDVKALANDLGMSLSSRARMELNKQKDETPEDTFEAMLS,not soluble
10,MSELIIYNGKVYTEDGKIDNGYIHVKDGQIVAIGEVDDKAAIDNDTTNKIQVIDAKGHHVLPGFIDIHIHGGYGQDAMDGSYDGLKYLSENLLSEGTTSYLATTMTQSTDKIDNALTNIAKYEAEQDVHNAAEIVGIHLEGPFISENKVGAQHPQYVVRPFIDKIKHFQETANGLIKIMTFAPEVEGAKEALETYKDDIIFSIGHTVATYEEAVEAVERGAKHVTHLYNAATPFQHREPGVFGAAWLNDALHTEMIVDGTHSHPASVAIAYRMKGNERFYLITDAMRAKGMPEGEYDLGGQKVTVQSQQARLANGALAGSILKMNHGLRNLISFTGDTLDHLWRVTSLNQAIALGIDDRKGSIKVNKDADLVILDDDMNVKSTIKQGKVHTFS,not soluble
11,MGSDKIHHHHHHMHFSKEHINALETRTRAHFINSLSGFKSANLIGTQDRQGNTNLSIVSSVIHLGANPPLMGMIIRPHSVPRHTFENIMQTGLYTINHVNQSIYEQAHQTSARYDKDESEFEATGLTPEYLSDFCAPFVKESRLKYSVKLVEHQHLAINGTEFVIGEIVDVYVDDNAVQTDGFIDLQAIDTVAISGLDCYYTGDKLARLPYAKK,not soluble
12,GPGSMAEAQARKRTESLSKMYSKTPISEGYALWDREYLLAAMRVFTFKAEGAPPFVLAPYLDSVAEITLQMHDLEDAAEQFAIAAGKYQLIDQKVLADLMRFKVTEVSSSAEIALEQVQAYLAAQDPQANGSGENSTVQTKSAFARVYAYLADLLLRSVDEEQASEAVLAQALTAAELAVQLGWDRDHCGWLLVGDVHAASGNYEKAKEAYGKALQRCPHYAKALERQIGVVQQLVRAADECGDDAGKATLNTELLTLLSRSIEVHPLANTFREKAFLLSEMHGDDAALAFVAETLEHPPQEEIEVIGSSAKEMTSTLLKAKAAILADGNQLDAALEAATKALEVDPNDEEAKSIIRDLHESMAA,soluble
13,MDGCYGISDSVGMITQPYRLYVERTDCKKNMARYYAMEITTTLFGDACLTRSWGRIGKRGQSKMHHFEREEEAVDLFLTLTRQKRSRGYRPATGRDRGLEHHHHHH,not soluble
14,MTSESSGNTGGAMDEPTEKKPKEFSDLPDHVLQRIMEKVEPSDRLSVRKVNRNLRQLIDEMDPGFRSISVNISTRKGVLVSYDNGSFIHYQQVYDDCEMFGRKEKKRFFNENAVKMAINDVIRVMSHPMSNVKLFRTGIPTKPEMERSRSTGKQWKRAKILCANRGFMEVSMKHLCHFSRVVVNQARTSMQTAIEIRDILLKSTSIEYVDFCSRDGVTIDAVRVFIPETANVNQTTDYDNFTFSSSMCSLNFKKKR,not soluble
15,MIITLFVMVSGNKVKYEGSGKSGLWMSNLEKSDKTSIGPNYFLNLYWQGSKKEEKWTVVERITLYVDGEKYQDDNVDEYDLSEYTGDEMPGGGRMEDHISTFDYMPEDEVIGHDVLVKVEWRTGQKKQTEAIKLHKKPWYKKLEHHHHHH,not soluble
16,MAKAAAGKKASPVKRVKKGGKAKDPNAPKRAMSAFFFWMQENRERIKKPGMGVADVAKAAGVEWGKLTDKSRWEKKAADDKKRYEVDIANYKKSQ,soluble
17,MSNVLTEIDSQYPYMTKNEKKIAKFILNSPQKVIKMRSQDLASLLDISTSSVIRFSKKITDGGFHDLKINISKYVPKASSIYNVELMNNESTESLRTKLHTRTTRALNHANNELNDKTIDQICHCLKRSETIFIYGFGASFVVATDLYQKLSRIGLNIQLVQETHIFATLLATHNSNDSVILITNNGTQSEMQSMVKVIDDYHIPIITITSTRDNPVAQASNIVLTYGKTDENEMHMGATTSLFAQMFTIDILYYRYVALNYHASLDFITQSKMALDNYRKHLSNINFKH,not soluble
18,EHLLEELESELVRRVYSTHFPPQVSIDEGQAQLACAEFHAVTPEEGQDLLVLSGDHQAQNNQGHYGLTDTFLDIADEFGIQRVFALGGVPTGELIEEYDVLGATTTEDFKETLEESGVAFREDEPAGGIVGVSGLLLGLSKRRDVPASCLMGETSGYLVDPKSAQAVLEILQDVIGFEVDYSSLEDRADEMEEVVRKIQEMEQQNSPSPADEDLRYIG,not soluble
19,MKVFTFLLIIMVCLYNFGVRAAMDNSKHSDEAEKLLAELSARKGEGEGEGEGEGEGEGEGEPKSTVSVFYLQPEEVNTLSHQAKRGDGEAGFRLFLYYKLSNYDEEKSSQWLKIAANNGHATAQYRLYVELQEQGETKEANEWLQKIKLAASNNDSSAIWFLVNCYKNQGNKKEALQWAYKLKASKQPLDADRLIEELTKEQK,soluble
20,MPYKNILTLISVNNDNFENYFRKIFLDVRSSGSKKTTINVFTEIQYQELVTLIREALLENIDIGYELFLWKKNEVDIFLKNLEKSEVDGLLVYCDDENKVFMSKIVDNLPTAIKRNLIKDFCRKLS,soluble
21,MSTSADYKINQQQIVCVASFLSKEGKTEALIAALASLIPDTRREAGCIRYELNVSRDEPRRVTFVEKFVDIAAFDEHCAKDAIQHYFHQVMPELVESFHVETYHQVIA,soluble
22,MGSDKIHHHHHHMSKSITRKIQLTGGSTYIVSLPKEWIKALSLSAGDEVEIYQDTDMKLLIVPKSANTTDQKEIKKIIHCDNVTSEAIIREFIAYYIAGFSSVSITCPRMSSSTRAYIKDVVRRRLLGAEVIEEDVSTISIQFLVDEKELSIKKAISRAFTISYNMLRDSLEAISKADIELAKEISGRDDEVDRFFFYIARQLTISVKAINVLDSEGYNLTQMVDIYSVAKTIERVGDHANRIASLVEDVSKFSNKEDLVNLGLTILESYKSAMNAFLNEKKDIAHSLISNIEIFEKLRELQEIAIKSNDNPKIITSTSMTVESLRRVARYSADIAEATIDILAKSNK,not soluble
23,MPQDSSQGRPRGDDVWVAEAKYDCNTRGRNSIMGNGALKYRTESKNFFNLIPEEVFHNTMKYLDLFLRNLRNIII,not soluble
24,MRSIFLLHFDYKTCEEEDFEDWNLADGKCLNGAKYMYKRRKQDARCLVKRTFKDMILHEIPCDSCTESDYECSSEFVRDAKGDCIPDYDQIALSDICDKANGETVSLEPLQLIKGDKCKKPMEIEAMNIPCEKILRESSNGKKIATIENKFDFEI,not soluble
25,MAHHHHHHMTSVIQRLRRIEVEGLENLRNLGGYHTNNSTKTTRWGVVYRSDQLFRVPADVAQMVLVDQLHIRHVYDLRANTEVSAKRYSLPHMQYTSLPIEMSNANRFLKEGENLKQVATAHRFMQEIYREFVRSYAPTMGLIIKGIIDSKASCDNAFLIHCTAGKDRTGWCCYVLLTLLDVMEEEKRSDYLLTNTFVGIPADAWDYDGAEGMGEEAMTALWTVFDEYLDAALDELNKMGGIYKYAKSHMGLTDEDIDELRELMLE,soluble

# Source: the DeepSol protein solubility set
